Target: T1, STREP2-FLAG-tagged RCC1L^V1 (human, UniProt Q96I51 38-464)
T1 construct: RCC1L (WBSCR16), human, isoform RCC1L^V1, the principal isoform, 464 amino acids as precursor; isoform cDNA expressed in cells and recovered from purified mitochondria; pcDNA5/FRT/TO; carboxy-terminal STREP2 followed by FLAG; also called RCC1L^V1-FLAG; WBSCR16 isoform V1; source: inducible transgenic HEK cell line (doxycycline), in lysate of purified mitochondria; not shown: STREP2, C-terminal, …
Test: co-IP; STREP2-FLAG-tagged RCC1L isoform as bait, captured on Strep-Tactin Sepharose overnight from trypsin-treated, sucrose gradient-purified HEK mitochondria lysed with 0.8% DDM; 10 washes; elution with 10 mM desthiobiotin; endogenous proteins in the elution found by immunoblot
Conditions: partners not purified

T1 sequence (Q96I51 38-464): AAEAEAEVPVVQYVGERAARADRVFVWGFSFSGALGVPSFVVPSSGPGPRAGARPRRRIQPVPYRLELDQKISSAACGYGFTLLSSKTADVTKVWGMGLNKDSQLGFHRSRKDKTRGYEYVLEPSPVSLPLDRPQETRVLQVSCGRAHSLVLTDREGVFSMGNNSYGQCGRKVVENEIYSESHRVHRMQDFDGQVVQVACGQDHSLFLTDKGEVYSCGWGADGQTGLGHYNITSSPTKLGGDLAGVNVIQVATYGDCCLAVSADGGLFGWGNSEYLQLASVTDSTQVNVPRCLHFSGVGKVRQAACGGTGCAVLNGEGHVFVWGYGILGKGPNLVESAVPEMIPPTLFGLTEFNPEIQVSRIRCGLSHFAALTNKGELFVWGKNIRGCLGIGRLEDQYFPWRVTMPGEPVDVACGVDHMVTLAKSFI

fold enrichment in the pull-down over MTG1: 5 fold | fold enrichment in the pull-down over MTG2: 4 fold
B1: GTPBP10 (enzyme, human (endogenous in HEK293T), UniProt A4D1E9 1-387, looked up)
chain: MVHCSCVLFRKYGNFIDKLRLFTRGGSGGMGYPRLGGEGGKGGDVWVVAQNRMTLKQLKDRYPRKRFVAGVGANSKISALKGSKGKDCEIPVPVGISVTDENGKIIGELNKENDRILVAQGGLGGKLLTNFLPLKGQKRIIHLDLKLIADVGLVGFPNAGKSSLLSCVSHAKPAIADYAFTTLKPELGKIMYSDFKQISVADLPGLIEGAHMNKGMGHKFLKHIERTRQLLFVVDISGFQLSSHTQYRTAFETIILLTKELELYKEELQTKPALLAVNKMDLPDAQDKFHELMSQLQNPKDFLHLFEKNMIPERTVEFQHIIPISAVTGEGIEELKNCIRKSLDEQANQENDALHKKQLLNLWISDTMSSTEPPSKHAVTTSKMDII
notes: GTPBP10, mitochondrial GTPase of mtLSU assembly, human; endogenous mitochondrial protein; source: endogenous, lysate of purified HEK mitochondria

— PMC7423155, “RCC1L (WBSCR16) isoforms coordinate mitochondrial ribosome assembly through their interaction with GTPases” (PLoS Genetics, 2020)
